# B1: Class A carbapenemase KPC-2 (Escherichia coli), A8DS27 (protein)
# chain: MSLYRRLVLLSCLSWPLAGFSATALTNLVAEPFAKLEQDFGGSIGVYAMDTGSGATVSYRAEERFPLCSSFKGFLAAAVLARSQQQAGLLDTPIRYGKNALVPWSPISEKYLTTGMTVAELSAAAVQYSDNAAANLLLKELGGPAGLTAFMRSIGDTTFRLDRWELELNSAIPGDARDTSSPRAVTESLQKLTLGSALAAPQRQQFVDWLKGNTTGNHRIRAAVPADWAVGDKTGTCGVYGTANDYAVVWPTGRAPIVLAVYTRAPNKDDKHSEAVIAAAARLALEGLGVNGQ
# B2: Beta-lactamase CTX-M (Escherichia coli), Q9EXV5 (protein)
# chain: MVKKSLRQFTLMATATVTLLLGSVPLYAQTADVQQKLAELERQSGGRLGVALINTADNSQILYRADERFAMCSTSKVMAAAAVLKKSESEPNLLNQRVEIKKSDLVNYNPIAEKHVNGTMSLAELSAAALQYSDNVAMNKLIAHVGGPASVTAFARQLGDETFRLDRTEPTLNTAIPGDPRDTTSPRAMAQTLRNLTLGKALGDSQRAQLVTWMKGNTTGAASIQAGLPASWVVGDKTGSGGYGTTNDIAVIWPKDRAPLILVTYFTQPQPKAESRRDVLASAAKIVTDGL
# B3: Beta-lactamase (Serratia marcescens), P18539 (protein)
# chain: MTKMNRCAALIAALILPTAHAAQQQDIDAVIQPLMKKYGVPGMAIAVSVDGKQQIYPYGVASKQTGKPITEQTLFEVGSLSKTFTATLAVYAQQQSKLSFKDPASHYLPDVRGSAFDGVSLLNLATHTSGLPLFVPDDVTNNAQLMAYYRAWQPKHPAGSYRVYSNLGIGMLGMIAAKSLDQPFIQAMEQGMLPALGMSHTYVQVPAAQMANYAQGYSKDDKPVRVNPGPLDAESYGIKSNARDLIRYLDANLQQVKVASVARRWPRRTSVITSAGAFTQDLMWENYPYPVKLSRLIEGNNAGMIMNGTPATAITPPQPELRAGWYNKTGSTGGFSTYAVFIPAKNIAVEMLANKWFPNDDRVEAAYHIIQALEKR
# Columns and labels:
# [1] = substrate: CC(C)(O/N=C(\C(=O)N[C@@H]1C(=O)N2C(C(=O)[O-])=C(C[n+]3ccccc3)CS[C@H]12)c1csc(N)n1)C(=O)O; details: Escherichia coli
# [2] = substrate: Nc1nc(/C(=N/O)C(=O)N[C@@H]2C(=O)N3C(C(=O)O)=C(/C=C4\CCN([C@@H]5CCNC5)C4=O)CS[C@H]23)ns1; details: Escherichia coli
# [3] = substrate: CO/N=C(\C(=O)N[C@@H]1C(=O)N2C(C(=O)[O-])=C(C[N+]3(C)CCCC3)CS[C@H]12)c1csc(N)n1; details: Escherichia coli
# [4] = substrate: O=C(Cc1cccs1)N[C@@H]1C(=O)N2C(C(=O)[O-])=C(C[n+]3ccccc3)CS[C@H]12; details: Escherichia coli
# [5] = substrate: CC1(C)S[C@@H]2[C@H](NC(=O)Cc3ccccc3)C(=O)N2[C@H]1C(=O)O; details: Escherichia coli
# [6] = substrate: CC(C)(O/N=C(\C(=O)N[C@@H]1C(=O)N2C(C(=O)[O-])=C(C[n+]3ccccc3)CS[C@H]12)c1csc(N)n1)C(=O)O; details: Escherichia coli; remark: listed apart in the source
# [7] = substrate: Nc1nc(/C(=N/O)C(=O)N[C@@H]2C(=O)N3C(C(=O)O)=C(/C=C4\CCN([C@@H]5CCNC5)C4=O)CS[C@H]23)ns1; details: Escherichia coli; remark: listed apart in the source
# [8] = substrate: CO/N=C(\C(=O)N[C@@H]1C(=O)N2C(C(=O)[O-])=C(C[N+]3(C)CCCC3)CS[C@H]12)c1csc(N)n1; details: Escherichia coli; remark: listed apart in the source
# [9] = substrate: O=C(Cc1cccs1)N[C@@H]1C(=O)N2C(C(=O)[O-])=C(C[n+]3ccccc3)CS[C@H]12; details: Escherichia coli; remark: listed apart in the source
# [10] = substrate: CC1(C)S[C@@H]2[C@H](NC(=O)Cc3ccccc3)C(=O)N2[C@H]1C(=O)O; details: Escherichia coli; remark: listed apart in the source
# [11] = substrate: CC(C)(O/N=C(\C(=O)N[C@@H]1C(=O)N2C(C(=O)[O-])=C(C[n+]3ccccc3)CS[C@H]12)c1csc(N)n1)C(=O)O; details: Escherichia coli; remark: listed apart in the source
# [12] = substrate: CO/N=C(\C(=O)N[C@@H]1C(=O)N2C(C(=O)O)=C(COC(C)=O)CS[C@H]12)c1csc(N)n1; details: Escherichia coli
# [13] = substrate: Nc1nc(/C(=N/O)C(=O)N[C@@H]2C(=O)N3C(C(=O)O)=C(/C=C4\CCN([C@@H]5CCNC5)C4=O)CS[C@H]23)ns1; details: Escherichia coli; remark: listed apart in the source
# [14] = substrate: CO/N=C(\C(=O)N[C@@H]1C(=O)N2C(C(=O)[O-])=C(C[N+]3(C)CCCC3)CS[C@H]12)c1csc(N)n1; details: Escherichia coli; remark: listed apart in the source
# [15] = substrate: O=C(Cc1cccs1)N[C@@H]1C(=O)N2C(C(=O)[O-])=C(C[n+]3ccccc3)CS[C@H]12; details: Escherichia coli; remark: listed apart in the source
# [16] = substrate: CC1(C)S[C@@H]2[C@H](NC(=O)Cc3ccccc3)C(=O)N2[C@H]1C(=O)O; details: Escherichia coli; remark: listed apart in the source
# [17] = substrate: CC(C)(O/N=C(\C(=O)N[C@@H]1C(=O)N2C(C(=O)[O-])=C(C[n+]3ccccc3)CS[C@H]12)c1csc(N)n1)C(=O)O; test: (§1) Activity of Escherichia coli CTX-M-15 assessed as drug hydrolysis by spectrophotometry
# [18] = substrate: CO/N=C(\C(=O)N[C@@H]1C(=O)N2C(C(=O)O)=C(COC(C)=O)CS[C@H]12)c1csc(N)n1; test: as §1
# [19] = substrate: Nc1nc(/C(=N/O)C(=O)N[C@@H]2C(=O)N3C(C(=O)O)=C(/C=C4\CCN([C@@H]5CCNC5)C4=O)CS[C@H]23)ns1; test: as §1
# [20] = substrate: CO/N=C(\C(=O)N[C@@H]1C(=O)N2C(C(=O)[O-])=C(C[N+]3(C)CCCC3)CS[C@H]12)c1csc(N)n1; test: as §1
# [21] = substrate: O=C(Cc1cccs1)N[C@@H]1C(=O)N2C(C(=O)[O-])=C(C[n+]3ccccc3)CS[C@H]12; test: as §1
# [22] = substrate: CC1(C)S[C@@H]2[C@H](NC(=O)Cc3ccccc3)C(=O)N2[C@H]1C(=O)O; test: as §1
# [23] = substrate: CC(C)(O/N=C(\C(=O)N[C@@H]1C(=O)N2C(C(=O)[O-])=C(C[n+]3ccccc3)CS[C@H]12)c1csc(N)n1)C(=O)O; test: (§2) Activity of Serratia marcescens AmpC assessed as drug hydrolysis by spectrophotometry
# [24] = substrate: O=C(Cc1cccs1)N[C@@H]1C(=O)N2C(C(=O)O)=C(/C=C/c3ccc([N+](=O)[O-])cc3[N+](=O)[O-])CS[C@H]12; test: as §2
# [25] = substrate: Nc1nc(/C(=N/O)C(=O)N[C@@H]2C(=O)N3C(C(=O)O)=C(/C=C4\CCN([C@@H]5CCNC5)C4=O)CS[C@H]23)ns1; test: as §2
# [26] = substrate: CO/N=C(\C(=O)N[C@@H]1C(=O)N2C(C(=O)[O-])=C(C[N+]3(C)CCCC3)CS[C@H]12)c1csc(N)n1; test: as §2
# [27] = substrate: O=C(Cc1cccs1)N[C@@H]1C(=O)N2C(C(=O)[O-])=C(C[n+]3ccccc3)CS[C@H]12; test: as §2
# [28] = substrate: CC1(C)S[C@@H]2[C@H](NC(=O)Cc3ccccc3)C(=O)N2[C@H]1C(=O)O; test: as §2
# [29] = substrate: CC(C)(O/N=C(\C(=O)N[C@@H]1C(=O)N2C(C(=O)[O-])=C(C[n+]3ccccc3)CS[C@H]12)c1csc(N)n1)C(=O)O; test: (§3) Ratio of Kcat to Km of Serratia marcescens AmpC assessed as drug hydrolysis by spectrophotometry
# [30] = substrate: O=C(Cc1cccs1)N[C@@H]1C(=O)N2C(C(=O)O)=C(/C=C/c3ccc([N+](=O)[O-])cc3[N+](=O)[O-])CS[C@H]12; test: as §3
# [31] = substrate: Nc1nc(/C(=N/O)C(=O)N[C@@H]2C(=O)N3C(C(=O)O)=C(/C=C4\CCN([C@@H]5CCNC5)C4=O)CS[C@H]23)ns1; test: as §3
# [32] = substrate: CO/N=C(\C(=O)N[C@@H]1C(=O)N2C(C(=O)[O-])=C(C[N+]3(C)CCCC3)CS[C@H]12)c1csc(N)n1; test: as §3
# [33] = substrate: O=C(Cc1cccs1)N[C@@H]1C(=O)N2C(C(=O)[O-])=C(C[n+]3ccccc3)CS[C@H]12; test: as §3
# [34] = substrate: CC1(C)S[C@@H]2[C@H](NC(=O)Cc3ccccc3)C(=O)N2[C@H]1C(=O)O; test: as §3
protein,measurement,setting,value
B1,Km,[1],230 µM
same,kcat,[1],0.38 s⁻¹
same,Km,[2],340 µM
same,kcat,[2],110 s⁻¹
same,Km,[3],540 µM
same,kcat,[3],12 s⁻¹
same,Km,[4],510 µM
same,kcat,[4],390 s⁻¹
same,Km,[5],30 µM
same,kcat,[5],60 s⁻¹
same,kcat/Km,[6],1700 M⁻¹ s⁻¹
same,kcat/Km,[7],320000 M⁻¹ s⁻¹
same,kcat/Km,[8],22000 M⁻¹ s⁻¹
same,kcat/Km,[9],770000 M⁻¹ s⁻¹
same,kcat/Km,[10],2e+06 M⁻¹ s⁻¹
B2,kcat/Km,[11],18000 M⁻¹ s⁻¹
same,kcat/Km,[12],6.9e+06 M⁻¹ s⁻¹
same,kcat/Km,[13],1.4e+07 M⁻¹ s⁻¹
same,kcat/Km,[14],250000 M⁻¹ s⁻¹
same,kcat/Km,[15],4.9e+06 M⁻¹ s⁻¹
same,kcat/Km,[16],5.4e+06 M⁻¹ s⁻¹
same,Km,[17],240 µM
same,kcat,[17],4.4 s⁻¹
same,Km,[18],26 µM
same,kcat,[18],180 s⁻¹
same,Km,[19],19 µM
same,kcat,[19],270 s⁻¹
same,Km,[20],180 µM
same,kcat,[20],45 s⁻¹
same,Km,[21],39 µM
same,kcat,[21],190 s⁻¹
same,Km,[22],8.7 µM
same,kcat,[22],47 s⁻¹
B3,Km,[23],570 µM
same,kcat,[23],< 0.05 s⁻¹
same,Km,[24],14 µM
same,kcat,[24],840 s⁻¹
same,Km,[25],320 µM
same,kcat,[25],< 2.7 s⁻¹
same,Km,[26],> 800 µM
same,kcat,[26],< 0.55 s⁻¹
same,Km,[27],680 µM
same,kcat,[27],2000 s⁻¹
same,Km,[28],2.1 µM
same,kcat,[28],19 s⁻¹
same,kcat/Km,[29],< 88 M⁻¹ s⁻¹
same,kcat/Km,[30],6e+07 M⁻¹ s⁻¹
same,kcat/Km,[31],< 8400 M⁻¹ s⁻¹
same,kcat/Km,[32],< 690 M⁻¹ s⁻¹
same,kcat/Km,[33],3.1e+06 M⁻¹ s⁻¹
same,kcat/Km,[34],9e+06 M⁻¹ s⁻¹
